Laboratory results as given in patent US20230129258A1, “HETEROTANDEM BICYCLIC PEPTIDE COMPLEXES” (BicycleTx Limited, priority 2019, published 2023).
Starred links: 1 amine or outer side, 2 acyl side, 3 side chain; linkers in the order of their positions; H or OH if unused. Positions of bridges follow the written chain, without caps; N, C: chain ends. Non-standard residues stand in square brackets, D forms with d. Chains are numbered I, II in the order given. No end group written: not given here. *: point of attachment. TATA = O=C(CC[*:1])N1CN(C(=O)CC[*:2])CN(C(=O)CC[*:3])C1; Hyp = O=C(O)[C@@H]1C[C@@H](O)CN1; hArg = N=C(N)NCCCC[C@H](N)C(=O)O; tBuAla = CC(C)(C)C[C@H](N)C(=O)O; dK(PYA) = not defined here; Nle = CCCC[C@H](N)C(=O)O; Pent4ynoyl = C#CCCC(=O)*

Biological target: CD137 on Jurkat reporter cells (Promega kit CS196005) (UniProt Q07011)
Sequence (Q07011 24-255 limits assumed): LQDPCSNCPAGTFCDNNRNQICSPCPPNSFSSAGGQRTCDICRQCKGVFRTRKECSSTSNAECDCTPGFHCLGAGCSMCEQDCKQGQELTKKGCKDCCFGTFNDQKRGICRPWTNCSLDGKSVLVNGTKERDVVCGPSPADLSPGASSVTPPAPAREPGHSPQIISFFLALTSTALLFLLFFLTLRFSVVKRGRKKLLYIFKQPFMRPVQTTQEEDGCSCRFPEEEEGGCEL
Test: cell-based or functional assay

Binder	Fold Improvement over BCY9173, EC50, PC3 [fold]	Fold Improvement over Emax (BCY9173), PC3 [fold]
BCY14050 (BCY8928: Ac-(SEQ ID NO: 11)-A; TATA; linker at dLys(PYA)4; BCY13918: A[HArg]D-(SEQ ID NO: 157); TATA; linker at N-terminus) peptide 1: AXDCXLVNPLCLXPDWXC peptide 2: CXPEXPYCFADPYXCA	2.05	1.91
BCY12725 (linker I:4-I:11-I:18, II:1-II:8-II:15 via TATA; not fully specified (bridges); reading uncertain; also: two CD137 bicycles per complex (EphA2:CD137 1:2)) peptide 1: A[hArg]DC[Hyp]LVNPLCLHP[dD]W[hArg]C peptide 2: Ac-C[tBuAla]PE[dK(PYA)]PYCFANPY[Nle]C	0.1	0.7
BCY13279 (linker I:1-I:8-I:15, II:1-II:8-II:15 via TATA (inferred); also: linker N-(acid-PEG3)-N-bis(PEG3-azide) on C-terminal dK of chain 1, joins two chain 2 copies via PYA triazoles) peptide 1: Ac-C[Hyp]LVNPLCLHP[dD]W[hArg]CL[dH]G[dK] peptide 2: Ac-C[tBuAla]PE[dK](Pent4ynoyl)PYCFADPY[Nle]CA	4.74	2.08

The next lines start with the values.

Fold Improvement over BCY9173, EC50, PC3 [fold]	Fold Improvement over Emax (BCY9173), PC3 [fold]	Binder
2.3	1.8	heterotandem bicyclic peptide complex BCY12491 (linker I:4-I:11-I:18, II:1-II:8-II:15 via TATA (inferred); also: N-(acid-PEG3)-N-bis(PEG3-azide) linker at chain 1 N-terminus, joined to dLys(PYA)4 of two BCY8928 chains (1:2 complex)) peptide 1: A[hArg]DC[Hyp]LVNPLCLHP[dD]W[hArg]C peptide 2: Ac-C[tBuAla]PE[dK](Pent4ynoyl)PYCFADPY[Nle]CA
4.16	1.89	BCY14052 (BCY8928: Ac-(SEQ ID NO: 11)-A; TATA; linker at dLys(PYA)4; BCY13920: A[HArg]D-(SEQ ID NO: 159); TATA; linker at N-terminus) peptide 1: AXDCXLVNPLCLFPDWXC peptide 2: CXPEXPYCFADPYXCA
3.15	1.88	BCY14051 (BCY8928: Ac-(SEQ ID NO: 11)-A; TATA; linker at dLys(PYA)4; BCY13919: A[HArg]D-(SEQ ID NO: 158); TATA; linker at N-terminus) peptide 1: AXDCXLVNPLCLXPDWXC peptide 2: CXPEXPYCFADPYXCA
